Laboratory results from patent US20160024210A1 (AstraZeneca / MedImmune, published 2016).

Tests used:
[1] = target: T1, H7CR-GFP fusion protein on transfected CHO cells (Homo sapiens (Human), UniProt Q96BF3 23-282); assay: flow cytometry, 5 µg/ml variant on H7CR-GFP transfected CHO cells, anti-hIg PE secondary antibody [row HC1-2, column LC1-2]
T1 construct: not shown: GFP part
T1 sequence: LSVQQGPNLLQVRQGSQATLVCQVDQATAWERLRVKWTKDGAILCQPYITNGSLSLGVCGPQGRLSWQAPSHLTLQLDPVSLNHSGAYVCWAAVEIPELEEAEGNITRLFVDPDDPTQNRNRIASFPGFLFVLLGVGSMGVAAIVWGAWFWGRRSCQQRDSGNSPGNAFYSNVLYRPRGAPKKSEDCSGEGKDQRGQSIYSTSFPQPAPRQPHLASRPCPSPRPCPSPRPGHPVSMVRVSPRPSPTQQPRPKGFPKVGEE
Protocol: (§1) 5 μg/ml antibodies from thirty-six variants were incubated with H7CR-GFP fusion protein transfected CHO cells for 30 min at room temperature. Cells were then washed twice with 2 ml flow cytometry buffer, and resuspended in 100 μl flow cytometry buffer. 1 μl anti-hIg PE secondary antibody (Biolegend) was added and incubated with the cells for 15 mins Samples were then washed and resuspended in 100 μl flow cytometry buffer. Flow Cytometry data was acquired using BD Canto (BD Biosciences) in plate format and analyzed by FlowJo software.

[2] = target: T2, human H7CR (B7-H7 counter-receptor) (human, UniProt Q96BF3 23-282); assay: binding to human H7CR as endogenously expressed on the surface of a cell
T2 construct: Used for H7CR on CHO.hH7CR transfectants, human T cells and tonsil tissue; also called B7-H7CR; CD28H
T2 sequence: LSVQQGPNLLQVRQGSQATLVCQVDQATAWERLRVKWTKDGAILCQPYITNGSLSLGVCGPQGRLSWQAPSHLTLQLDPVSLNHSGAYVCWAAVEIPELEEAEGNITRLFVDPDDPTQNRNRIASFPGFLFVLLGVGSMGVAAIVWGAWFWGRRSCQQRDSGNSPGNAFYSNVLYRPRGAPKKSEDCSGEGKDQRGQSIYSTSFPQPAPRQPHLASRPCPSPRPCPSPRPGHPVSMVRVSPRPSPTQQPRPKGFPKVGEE

[3] = target: T1, H7CR-GFP fusion protein on transfected …; assay: flow cytometry, 5 µg/ml variant on H7CR-GFP transfected CHO cells, anti-hIg PE secondary antibody [row HC1-2, column LC2-2]
Protocol: as §1

[4] = target: T1, H7CR-GFP fusion protein on transfected …; assay: flow cytometry, 5 µg/ml variant on H7CR-GFP transfected CHO cells, anti-hIg PE secondary antibody [row HC1-1, column LC2-2]
Protocol: as §1

[5] = target: T1, H7CR-GFP fusion protein on transfected …; assay: flow cytometry, 5 µg/ml variant on H7CR-GFP transfected CHO cells, anti-hIg PE secondary antibody [row HC1-2, column LC1-1]
Protocol: as §1

[6] = target: T1, H7CR-GFP fusion protein on transfected …; assay: flow cytometry, 5 µg/ml variant on H7CR-GFP transfected CHO cells, anti-hIg PE secondary antibody [row HC1-1, column LC1-3]
Protocol: as §1

[7] = target: T1, H7CR-GFP fusion protein on transfected …; assay: flow cytometry, 5 µg/ml variant on H7CR-GFP transfected CHO cells, anti-hIg PE secondary antibody [row HC1-1, column LC2-1]
Protocol: as §1

[8] = target: T1, H7CR-GFP fusion protein on transfected …; assay: flow cytometry, 5 µg/ml variant on H7CR-GFP transfected CHO cells, anti-hIg PE secondary antibody [row HC1-1, column LC1-2]
Protocol: as §1

[9] = target: T1, H7CR-GFP fusion protein on transfected …; assay: flow cytometry, 5 µg/ml variant on H7CR-GFP transfected CHO cells, anti-hIg PE secondary antibody [row HC1-2, column LC1-3]
Protocol: as §1

[10] = target: T1, H7CR-GFP fusion protein on transfected …; assay: flow cytometry, 5 µg/ml variant on H7CR-GFP transfected CHO cells, anti-hIg PE secondary antibody [row HC1-1, column LC2-3]
Protocol: as §1

[11] = target: T1, H7CR-GFP fusion protein on transfected …; assay: flow cytometry, 5 µg/ml variant on H7CR-GFP transfected CHO cells, anti-hIg PE secondary antibody [row HC1-1, column LC1-1]
Protocol: as §1

[12] = target: T1, H7CR-GFP fusion protein on transfected …; assay: flow cytometry, 5 µg/ml variant on H7CR-GFP transfected CHO cells, anti-hIg PE secondary antibody [row HC1-2, column LC2-1]
Protocol: as §1

[13] = target: T2, human H7CR (B7-H7 counter-receptor); assay: flow cytometry, 5 µg/ml mAb on H7CR CHO stable transfectants [C]
Protocol: 5 μg/ml H7CR 1.3, 4.5 and 7.8 mAbs was used to stain H7CR stable transfectants to show binding specificity (FIG. 4). 10 μg/ml B7-H7mIg fusion protein was also used to stain H7CR CHO transfectants. H7CR mAbs were added to the system to evaluate the blocking capability of H7CR mAbs on B7-H7-H7CR interactions (FIG. 5). Immunohistochemistry staining for H7CR on human tonsil paraffin-embedded section was performed with 4.5 antibody at a concentration of 5 μg/ml using a standard protocol (FIG. 6). For cell surface staining and analysis by flow cytometry, cells were incubated with the indicated mAb for 30 min at 4° C., washed with buffer and analyzed. Expression of H7CR on human and mouse PBMC was evaluated by lineage marker and 1.3 antibody staining (FIG. 7-11). Expression of B7-H7 on activated monocyte-derived DC was evaluated by anti-B7-H7 antibody staining (FIG. 12).

B1: 4.5 humanized variant 8 (HC1-2 / LC1-2) (antibody, V domains shown)
VH: QVQLQESGPGLVKPSQTLSLTCTVSGFSITTGGYYWNWIRQHPGKKLEWIGYIYTSGRTSYNPSLKSRVTISRDTSKNQFSLKLSSVTAADTAVYYCADMADKGGWFAYWGQGTLVTVSS
VL: DIVMTQSPDSLAVSLGERATINCKSSQSLFSSNTKRNYLNWYQQKPGQPPKLLIYHASTRLSGVPDRFSGSGSGTDFTLTISSLQAEDVADYFCQQHYETPLTFGDGTRLEIK
notes: Variable domains only; detected with anti-hIg secondary; also called VH1B / VL1B
B1: binds [1]; binds [2].

B2: 4.5 humanized variant 11 (HC1-2 / LC2-2) (antibody, V domains shown)
VH: QVQLQESGPGLVKPSQTLSLTCTVSGFSITTGGYYWNWIRQHPGKKLEWIGYIYTSGRTSYNPSLKSRVTISRDTSKNQFSLKLSSVTAADTAVYYCADMADKGGWFAYWGQGTLVTVSS
VL: DIVMTQTPLSLPVTPGEPASISCRSSQSLFSSNTKRNYLNWYLQKPGQSPKLLIYHASTRLSGVPDRFSGSGSGTDFTLKISRVEAEDVGDYFCQQHYETPLTFGDGTRLEIK
notes: Variable domains only; detected with anti-hIg secondary; also called VH1B / VL2B
B2: binds [3]; binds [2].

B3: 4.5 humanized variant 5 (HC1-1 / LC2-2) (antibody, V domains shown)
VH: QVQLQESGPGLVKPSQTLSLTCTVSGFSITTGGYYWSWIRQHPGKGLEWIGYIYTSGRTYYNPSLKSRVTISVDTSKNQFSLKLSSVTAADTAVYYCADMADKGGWFAYWGQGTLVTVSS
VL: DIVMTQTPLSLPVTPGEPASISCRSSQSLFSSNTKRNYLNWYLQKPGQSPKLLIYHASTRLSGVPDRFSGSGSGTDFTLKISRVEAEDVGDYFCQQHYETPLTFGDGTRLEIK
notes: Variable domains only; detected with anti-hIg secondary; also called VH1A / VL2B
B3: binds [4]; binds [2].

B4: 4.5 humanized variant 7 (HC1-2 / LC1-1) (antibody, V domains shown)
VH: QVQLQESGPGLVKPSQTLSLTCTVSGFSITTGGYYWNWIRQHPGKKLEWIGYIYTSGRTSYNPSLKSRVTISRDTSKNQFSLKLSSVTAADTAVYYCADMADKGGWFAYWGQGTLVTVSS
VL: DIVMTQSPDSLAVSLGERATINCKSSQSLFSSNTKRNYLAWYQQKPGQPPKLLIYHASTRESGVPDRFSGSGSGTDFTLTISSLQAEDVAVYYCQQHYETPLTFGQGTRLEIK
notes: Variable domains only; detected with anti-hIg secondary; also called VH1B / VL1A
B4: binds [5]; binds [2].

B5: 4.5 humanized variant 3 (HC1-1 / LC1-3) (antibody, V domains shown)
VH: QVQLQESGPGLVKPSQTLSLTCTVSGFSITTGGYYWSWIRQHPGKGLEWIGYIYTSGRTYYNPSLKSRVTISVDTSKNQFSLKLSSVTAADTAVYYCADMADKGGWFAYWGQGTLVTVSS
VL: DIVMTQSPDSLAVSLGERATINCLSSQSLFSSNTKRNYLNWYQQKPGQSPKLLIYHASTRLSGVPDRFSGSGSGTDFTLTISSLQAEDVADYFCQQHYETPLTFGDGTRLEIK
notes: Variable domains only; detected with anti-hIg secondary; also called VH1A / VL1C
B5: binds [6]; binds [2].

B6: 4.5 humanized variant 4 (HC1-1 / LC2-1) (antibody, V domains shown)
VH: QVQLQESGPGLVKPSQTLSLTCTVSGFSITTGGYYWSWIRQHPGKGLEWIGYIYTSGRTYYNPSLKSRVTISVDTSKNQFSLKLSSVTAADTAVYYCADMADKGGWFAYWGQGTLVTVSS
VL: DIVMTQTPLSLPVTPGEPASISCRSSQSLFSSNTKRNYLDWYLQKPGQSPQLLIYHASYRASGVPDRFSGSGSGTDFTLKISRVEAEDVGVYYCQQHYETPLTFGQGTRLEIK
notes: Variable domains only; detected with anti-hIg secondary; also called VH1A / VL2A
B6: binds [7]; binds [2].

B7: 4.5 humanized variant 2 (HC1-1 / LC1-2) (antibody, V domains shown)
VH: QVQLQESGPGLVKPSQTLSLTCTVSGFSITTGGYYWSWIRQHPGKGLEWIGYIYTSGRTYYNPSLKSRVTISVDTSKNQFSLKLSSVTAADTAVYYCADMADKGGWFAYWGQGTLVTVSS
VL: DIVMTQSPDSLAVSLGERATINCKSSQSLFSSNTKRNYLNWYQQKPGQPPKLLIYHASTRLSGVPDRFSGSGSGTDFTLTISSLQAEDVADYFCQQHYETPLTFGDGTRLEIK
notes: Variable domains only; detected with anti-hIg secondary; also called VH1A / VL1B
B7: binds [8]; binds [2].

B8: 4.5 humanized variant 9 (HC1-2 / LC1-3) (antibody, V domains shown)
VH: QVQLQESGPGLVKPSQTLSLTCTVSGFSITTGGYYWNWIRQHPGKKLEWIGYIYTSGRTSYNPSLKSRVTISRDTSKNQFSLKLSSVTAADTAVYYCADMADKGGWFAYWGQGTLVTVSS
VL: DIVMTQSPDSLAVSLGERATINCLSSQSLFSSNTKRNYLNWYQQKPGQSPKLLIYHASTRLSGVPDRFSGSGSGTDFTLTISSLQAEDVADYFCQQHYETPLTFGDGTRLEIK
notes: Variable domains only; detected with anti-hIg secondary; also called VH1B / VL1C
B8: binds [2]; binds [9].

B9: 4.5 humanized variant 6 (HC1-1 / LC2-3) (antibody, V domains shown)
VH: QVQLQESGPGLVKPSQTLSLTCTVSGFSITTGGYYWSWIRQHPGKGLEWIGYIYTSGRTYYNPSLKSRVTISVDTSKNQFSLKLSSVTAADTAVYYCADMADKGGWFAYWGQGTLVTVSS
VL: DIVMTQTPSSLPVTPGEPASISCLSSQSLFSSNTKRNYLNWYLQKPGQSPKLLIYHASTRLSGVPDRFSGSGSGTDFTLKISRVEAEDVGDYFCQQHYETPLTFGDGTRLEIK
notes: Variable domains only; detected with anti-hIg secondary; also called VH1A / VL2C
B9: binds [10]; binds [2].

B10: 4.5 humanized variant 1 (HC1-1 / LC1-1) (antibody, V domains shown)
VH: QVQLQESGPGLVKPSQTLSLTCTVSGFSITTGGYYWSWIRQHPGKGLEWIGYIYTSGRTYYNPSLKSRVTISVDTSKNQFSLKLSSVTAADTAVYYCADMADKGGWFAYWGQGTLVTVSS
VL: DIVMTQSPDSLAVSLGERATINCKSSQSLFSSNTKRNYLAWYQQKPGQPPKLLIYHASTRESGVPDRFSGSGSGTDFTLTISSLQAEDVAVYYCQQHYETPLTFGQGTRLEIK
notes: Variable domains only; detected with anti-hIg secondary; also called VH1A / VL1A
B10: binds [11]; binds [2].

B11: 4.5 humanized variant 10 (HC1-2 / LC2-1) (antibody, V domains shown)
VH: QVQLQESGPGLVKPSQTLSLTCTVSGFSITTGGYYWNWIRQHPGKKLEWIGYIYTSGRTSYNPSLKSRVTISRDTSKNQFSLKLSSVTAADTAVYYCADMADKGGWFAYWGQGTLVTVSS
VL: DIVMTQTPLSLPVTPGEPASISCRSSQSLFSSNTKRNYLDWYLQKPGQSPQLLIYHASYRASGVPDRFSGSGSGTDFTLKISRVEAEDVGVYYCQQHYETPLTFGQGTRLEIK
notes: Variable domains only; detected with anti-hIg secondary; also called VH1B / VL2A
B11: binds [12]; binds [2].

B12: hamster anti-human H7CR antibody clone 7.8 (antibody, V domains shown)
VH: QIQLQESGPGLVKPSQSLSLTCSVTGFSITTGGYYWNWIRQFPGKKLEWMGYIYSSGRTSYNPSLKSRISITRDTSKNQFFLQLNSVTTEDTATYYCADMADKGGWFDYWGQGTLVTVSS
VL: DIVMTQSPSSLTVSAGEKVTISCLSSQSLFSSNTNRNYLSWYLQRPGQSPKLLIYHASTRLTGVPGRFIGSGSGTDFTLTVSTVQAGDLGDYFCQQHYVTPLTFGDGTRLEIK
notes: Hamster monoclonal antibody; also called H7CR7.8
B12: binds [13].
